These results are taken from US20210347873A1 (SHANGHAI PHARMAEXPLORER, published 2021).

Assay [1] concerns the target human BLyS (full length, arginine to histidine at position 132) on CHO-K1 cells (human) (UniProt Q9Y275). Put plainly: flow cytometry, CHO-K1 hBLyS cells, antibody 0 nM. Background: In flow cytometry, cells or beads pass a laser one at a time.
Assay [2] has the same target. Put plainly: flow cytometry, CHO-K1 hBLyS cells, antibody 0.0213 nM.
In assay [3] the target is cynomolgus BLyS (full length, arginine to histidine at position 132) on CHO-K1 cells (cynomolgus). As to the kind of experiment: flow cytometry, CHO-K1 cynoBLyS cells, antibody 13.3 nM.
Assay [4] has the same target. Put plainly: flow cytometry, CHO-K1 cynoBLyS cells, antibody 2.67 nM.
Target sequence in this assay (Q9Y275 other isoform, or with tags, fused parts or gaps limits assumed): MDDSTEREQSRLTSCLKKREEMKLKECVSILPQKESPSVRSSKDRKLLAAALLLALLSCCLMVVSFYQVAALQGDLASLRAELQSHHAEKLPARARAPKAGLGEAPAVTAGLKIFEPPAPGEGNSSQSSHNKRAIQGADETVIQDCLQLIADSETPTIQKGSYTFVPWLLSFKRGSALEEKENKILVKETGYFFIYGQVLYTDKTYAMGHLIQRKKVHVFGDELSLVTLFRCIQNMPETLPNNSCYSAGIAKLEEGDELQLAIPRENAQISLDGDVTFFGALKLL
For assay [5], the target named is biotinylated hBLyS-ECD (human) (UniProt Q9Y275). As to the kind of experiment: blocking ELISA: biotinylated hBLyS-ECD on coated BAFF R, antibody 4 nM. On the technique in general: An ELISA detects its analyte on a solid surface through an enzyme-linked reagent.
biotinylated hBLyS-ECD (human), sequence (Q9Y275 134-285): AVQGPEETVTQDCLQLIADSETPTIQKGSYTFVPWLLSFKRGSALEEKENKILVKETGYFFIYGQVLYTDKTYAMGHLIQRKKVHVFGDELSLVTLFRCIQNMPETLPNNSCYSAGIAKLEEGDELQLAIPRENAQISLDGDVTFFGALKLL
For assay [6] the target is unchanged. As to the kind of experiment: blocking ELISA: biotinylated hBLyS-ECD on coated BAFF R, antibody 20 nM.
Assay [7] has the same target. As to the kind of experiment: ELISA, biotinylated hBLyS-ECD captured on streptavidin; antibody 13.3 nM.
For assay [8] the target is unchanged. As to the kind of experiment: blocking ELISA: biotinylated hBLyS-ECD on coated BAFF R, antibody 0.8 nM.
For assay [9] the target is unchanged. As to the kind of experiment: ELISA, biotinylated hBLyS-ECD captured on streptavidin; antibody 0.534 nM.
For assay [10] the target is unchanged. As to the kind of experiment: blocking ELISA: biotinylated hBLyS-ECD on coated BAFF R, antibody 0.16 nM.
Assay [11] shares this target. As to the kind of experiment: blocking ELISA: biotinylated hBLyS-ECD on coated BAFF R, antibody 0.0064 nM.
Assay [12] shares this target. Put plainly: ELISA, biotinylated hBLyS-ECD captured on streptavidin; antibody 0 nM (blank).
The target is the same in assay [13]. Put plainly: BAFF R-coated ELISA, biotinylated hBLyS-ECD bound in presence of control antibody 0.8 nM.
For assay [14] the target is unchanged. As to the kind of experiment: BAFF R-coated ELISA, biotinylated hBLyS-ECD bound in presence of control antibody 100 nM.
For assay [15], the target named is T1, extracellular domain of human BLyS protein (hBLyS-ECD), His-tagged, Ala134-Leu285 (human, UniProt Q9Y275 134-285). As to the kind of experiment: cell-based or functional assay.
T1 sequence (Q9Y275 134-285): as above
Assay [16] addresses T2, biotinylated hBLyS-ECD (human, UniProt Q9Y275 134-285, biotinylated with Biotin-X-X-NHS (molar ratio 7:1); sites not stated).
T2 construct: also called biotinylated immunogen; biotinylated hBLvS-ECD
Put plainly: ELISA on captured biotinylated hBLyS-ECD; antibody 2.67 nM.

Assay [17] has as its target T2, biotinylated hBLyS-ECD. As to the kind of experiment: ELISA on captured biotinylated hBLyS-ECD; antibody 66.7 nM.
In assay [18] the target is T2, biotinylated hBLyS-ECD. Put plainly: ELISA on captured biotinylated hBLyS-ECD; antibody 0.107 nM.
Assay [19] deals with T2, biotinylated hBLyS-ECD. As to the kind of experiment: ELISA on captured biotinylated hBLyS-ECD; antibody 0.0213 nM.
The target of assay [20] is T2, biotinylated hBLyS-ECD. Put plainly: ELISA on captured biotinylated hBLyS-ECD; antibody 0 nM (background).
The target in assay [21] is T1, extracellular domain of human BLyS …. As to the kind of experiment: SPR (Biacore), antibody captured by anti-human Fc, hBLyS-ECD as analyte. On the procedure:
Affinity constants were determined using a Biacore X100 instrument (purchased from GE Healthcare). Detailed operations and methods referred to the instrument manuals and detailed methods provided by manufacturers, specifically: determining affinity constant using a CM5 chip (Sensor Chip CM5, purchased from GE Healthcare). […] Then 1 M ethanolamine was injected in chip to block the remaining activation sites. After the antibody to be tested (i.e., the human BLyS antibody prepared by Embodiment 2) was captured by chip, 7 different gradient of immunogen dilutions (i.e., hBLyS-ECD) prepared by Embodiment 1 were injected and the binding and dissociation of antigen with antibody was detected by a Biacore instrument. The dissociation constant and binding constant were then fitted by Biacore X100 Evaluation Software 2.0, while the affinity constant was the ratio of dissociation constant to binding constant.
The binding and dissociation between antibody and antigen was detected by Biacore.
On the technique in general: Surface plasmon resonance follows binding to a sensor surface in real time, without labels.

The target of assay [22] is T2, biotinylated hBLyS-ECD. Put plainly: BAFF R-coated ELISA, biotinylated hBLyS-ECD bound in presence of antibody 4 nM.
Assay [23] concerns the target T2, biotinylated hBLyS-ECD. As to the kind of experiment: BAFF R-coated ELISA, biotinylated hBLyS-ECD bound in presence of antibody 0.0064 nM.

T2 sequence (Q9Y275 134-285): as above
human BLyS (full length, arginine to histidine at position 132) on CHO-K1 cells (human), sequence (Q9Y275 whole entry R130H): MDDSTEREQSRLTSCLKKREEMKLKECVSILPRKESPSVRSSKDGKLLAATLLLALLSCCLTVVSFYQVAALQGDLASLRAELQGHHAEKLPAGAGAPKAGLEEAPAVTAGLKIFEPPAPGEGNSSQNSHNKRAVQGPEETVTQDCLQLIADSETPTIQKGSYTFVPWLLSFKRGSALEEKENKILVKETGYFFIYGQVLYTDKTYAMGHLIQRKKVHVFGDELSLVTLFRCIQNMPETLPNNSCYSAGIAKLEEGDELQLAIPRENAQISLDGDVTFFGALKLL

In the case of mIgG Control (antibody), the MFI is 30.3 MFI in assay [1], 32.7 MFI in assay [2], 20.7 MFI in [3] and 21.2 MFI in assay [4]. Also, the OD450 nm in assay [5] stood at 1.41 OD450 nm; in assay [6], 1.36 OD450 nm; in assay [7] it was 0.0627; in assay [8], 1.4 OD450 nm; in [9], 0.0594; in assay [10], 1.47 OD450 nm. For the same molecule, the values for the OD450 nm in [11] and in assay [12] were 1.4 OD450 nm and 0.0574, respectively.
For hIgG Control (antibody), the MFI in assay [1] is 27.2 MFI; in assay [2], 33.6 MFI; in assay [3], 26.7 MFI; in assay [4] it was 22.7 MFI. In addition, the OD450 nm turned out to be 1.09 OD450 nm in assay [5]; 1.06 OD450 nm in assay [6]; 0.102 in assay [7]; 1.14 OD450 nm in assay [8]; 0.0916 in assay [9]; 1.08 OD450 nm in assay [10]. The OD450 nm was determined as 1.14 OD450 nm in [11], 0.103 in assay [12], 1.85 OD450 nm in assay [13] and 1.87 OD450 nm in [14].

B1: c97A3C2H4 (antibody, V domains shown)
VH: EVKLVESGGGLVQPGGSLKLSCAASGFTFSTYTMSWVRQTPEKRLEWVAYISYGGGSTSYPDTVKGRFTISRDNAKNTLYLQMSSLKSEDTAIYYCTRHVTVVENSMDYWGQGTSVTVSS
VL: DILLTQSPDILSVSPGERVSFSCRASQSIGTSIHWYQQRTNGSPRLLIKYVSESFSGTPSRFSGSGSGTAFTLTINSVESEDIADYYCQQTHSWPWTFGGGTKLEIK
notes: also called chimeric antibody c97A3C2H4
A word on the Kd: it is the concentration at which binding is half-saturated. Low values mean tighter binding, high ones weaker binding. The koff is the rate constant with which the complex falls apart. By kon is commonly meant the rate constant with which the complex forms. Read a high kon as faster complex formation. With B1, in assay [15], the “OD450 nm (as headed), mouse B lymphocyte proliferation; antibody 0 nM” value was 4440; the “OD450 nm (as headed), mouse B lymphocyte proliferation; antibody 0.000256 nM” value turned out to be 5020; the “OD450 nm (as headed), mouse B lymphocyte proliferation; antibody 0.00128 nM” value was found to be 4870; the “OD450 nm (as headed), mouse B lymphocyte proliferation; antibody 0.0064 nM” value came out at 5280. For the same molecule, in assay [15], the “OD450 nm (as headed), mouse B lymphocyte proliferation; antibody 0.032 nM” value worked out at 4450; the “OD450 nm (as headed), mouse B lymphocyte proliferation; antibody 0.16 nM” value was 3740; the “OD450 nm (as headed), mouse B lymphocyte proliferation; antibody 0.8 nM” value worked out at 1460; the “OD450 nm (as headed), mouse B lymphocyte proliferation; antibody 4 nM” value stood at 578. In assay [15], the “OD450 nm (as headed), mouse B lymphocyte proliferation; antibody 20 nM” value is 424 and the “OD450 nm (as headed), mouse B lymphocyte proliferation; antibody 100 nM” value came to 444. Moreover, in [16], the OD450 nm came out at 2.25 OD450 nm. In addition, the OD450 nm in [17] came to 2.41 OD450 nm. Also, the OD450 nm in [18] amounted to 1.19 OD450 nm. Also, the OD450 nm in assay [19] amounted to 0.936 OD450 nm. The OD450 nm in assay [20] amounted to 0.122 OD450 nm. In addition, in assay [21], binding was characterised by a dissociation constant (Kd) of 1.49 nM, the koff turned out to be 0.000179 s⁻¹ and the kon stood at 121000 M⁻¹ s⁻¹. For the same molecule, in assay [22], the OD450 nm came out at 1.07 OD450 nm. Moreover, the OD450 nm in [23] turned out to be 1.96 OD450 nm.

B2: c8E7D9C7F5 (antibody, V domains shown)
VH: QVQLQQSGVELARPGASVKLSCKASGYTFTSYGISWVKQRTGQALEWIGEIYPRSGNTYYNEKFKGKATLTADKSSSTAYMELRSLTSEDSAVYFCARSGPITTLVATDYGMDYWGQGTSVTVSS
VL: DIVLTQSPASLAVSLGQRATISCRASKSVSTSSYSYMHWYQQKPGQPPKLLIKFASNLESGVPARFSGSGSGTDFTLNIHPVEEEDAATYYCQHSREFPYTFGGGTKLEIK
notes: also called chimeric antibody c8E7D9C7F5
Consider B2, for which, in assay [15], the “OD450 nm (as headed), mouse B lymphocyte proliferation; antibody 0 nM” value stood at 4750; the “OD450 nm (as headed), mouse B lymphocyte proliferation; antibody 0.000256 nM” value worked out at 4970; the “OD450 nm (as headed), mouse B lymphocyte proliferation; antibody 0.00128 nM” value amounted to 5150; the “OD450 nm (as headed), mouse B lymphocyte proliferation; antibody 0.0064 nM” value stood at 5280. Also, in [15], the “OD450 nm (as headed), mouse B lymphocyte proliferation; antibody 0.032 nM” value is 4620; the “OD450 nm (as headed), mouse B lymphocyte proliferation; antibody 0.16 nM” value came to 4110; the “OD450 nm (as headed), mouse B lymphocyte proliferation; antibody 0.8 nM” value worked out at 2070; the “OD450 nm (as headed), mouse B lymphocyte proliferation; antibody 4 nM” value is 488. For the same molecule, in [15], the “OD450 nm (as headed), mouse B lymphocyte proliferation; antibody 20 nM” value was 367 and the “OD450 nm (as headed), mouse B lymphocyte proliferation; antibody 100 nM” value was 345. Further, the OD450 nm in [16] came out at 2.21 OD450 nm. Moreover, the OD450 nm in [17] is 2.32 OD450 nm. For the same molecule, the OD450 nm in assay [18] is 1.28 OD450 nm. Moreover, the OD450 nm in [19] was determined as 0.574 OD450 nm. Besides, the OD450 nm in assay [20] worked out at 0.0918 OD450 nm. In addition, in [21], the Kd turned out to be 2.94 nM, the koff is 0.000714 s⁻¹ and the kon is 243000 M⁻¹ s⁻¹. The OD450 nm in [22] is 1.04 OD450 nm. Moreover, in assay [23], the OD450 nm was 2.01 OD450 nm.
